Numbered stars: 1 amine (or outer) side, 2 acyl side, 3 side chain; on linkers, the order of the positions; unused ones are H or OH. Square brackets hold non-standard residues; d marks the D form. * marks the point of attachment. Ebe = (R)-2-amino-3-(methylsulfanyl)propanoic acid, CSC[C@H](N[*:1])C(=O)[*:2]; 6014 = (E)-dodec-2-enoic acid, CCCCCCCCC/C=C/C(=O)*; Pro(trans-4-F) = O=C(O)[C@@H]1C[C@@H](F)CN1; Phe(4-Br) = N[C@@H](Cc1ccc(Br)cc1)C(=O)O; Dodecenoyl(5Z) = CCCCCC/C=C\CCCC(=O)*; Hyp = O=C(O)[C@@H]1C[C@@H](O)CN1; NMeF = CN[C@@H](Cc1ccccc1)C(=O)O; tBuAla = CC(C)(C)C[C@H](N)C(=O)O; dAgb = N=C(N)NCC[C@@H](N)C(=O)O; dAgp = N=C(N)NC[C@@H](N)C(=O)O; KM‑116‑167 = not defined here; NMeL = CN[C@@H](CC(C)C)C(=O)O; NMeK = CN[C@@H](CCCCN)C(=O)O; Tle = CC(C)(C)[C@H](N)C(=O)O; Lauroyl = CCCCCCCCCCCC(=O)*; dDab = NCC[C@@H](N)C(=O)O; NMeA = CN[C@@H](C)C(=O)O; Octanoyl = CCCCCCCC(=O)*; 6054 = not defined here; Nva = CCC[C@H](N)C(=O)O; Hexanoyl = CCCCCC(=O)*; GABA = NCCCC(=O)O; Sar = CNCC(=O)O
B1: JAL-1228 (peptide)
peptide: Octanoyl-AFRLK[NMeL]DRI-NH2
modifications: not fully specified (some residues); printed as Occ-ala-Phe-arg-Leu-Lys-Nml-Asp-Arg-Ile-NH2
B2: JAL-1077 (peptide)
peptide: Octanoyl-X[NMeF][dR]LP[NMeL]DRI-NH2
modifications: not fully specified (some residues); printed as Occ-pip-Nmf-arg-Leu-Pro-Nml-Asp-Arg-Ile-NH2
B3: JAL-1087 (peptide)
peptide: Octanoyl-XF[dR]L[Hyp][NMeL]DRI-NH2
modifications: not fully specified (some residues); printed as Occ-pip-Phe-arg-Leu-Hyp-Nml-Asp-Arg-Ile-NH2
B4: JAL-1230 (peptide)
peptide: Octanoyl-AFRL[NMeA][NMeL]DRI-NH2
modifications: not fully specified (some residues); printed as Occ-ala-Phe-arg-Leu-Nma-Nml-Asp-Arg-Ile-NH2
B5: JAL-1157_02 (peptide)
peptide: Octanoyl-XF[dR]L[Hyp]LDRI-NH2
modifications: not fully specified (some residues); printed as Oct-pip-Phe-arg-Leu-Hyp-Leu-Asp-Arg-Ile-NH2
B6: JAL-1229 (peptide)
peptide: Octanoyl-AFRL[NMeK][NMeL]DRI-NH2
modifications: not fully specified (some residues); printed as Occ-ala-Phe-arg-Leu-Nmk-Nml-Asp-Arg-Ile-NH2
B7: JAL-1078 (peptide)
peptide: Octanoyl-XF[dR]LP[NMeL]DRI-NH2
modifications: not fully specified (some residues); printed as Occ-pip-Phe-arg-Leu-Pro-Nml-Asp-Arg-Ile-NH2
B8: JAL-1237 (peptide)
peptide: 6014-FRL[Hyp][NMeL]DRI-NH2
modifications: not fully specified (some residues); printed as 6014-Phe-arg-Leu-Hyp-Nml-Asp-Arg-Ile-NH2
B9: JAL-1233 (peptide)
peptide: Octanoyl-AFR[Ebe][Hyp][NMeL]DRI-NH2
modifications: not fully specified (some residues); printed as Occ-ala-Phe-arg-Ebe-Hyp-Nml-Asp-Arg-Ile-NH2
B10: JAL-1214 (peptide)
peptide: Lauroyl-FRL[Hyp][NMeL]DRI-NH2
modifications: not fully specified (some residues); printed as 832-Phe-arg-Leu-Hyp-Nml-Asp-Arg-Ile-NH2
B11: JAL-1159 (peptide)
peptide: Octanoyl-AFR[KM‑116‑167][NMeL]DRI-NH2
modifications: not fully specified (some residues); printed as Occ-ala-Phe-arg-(KM-116-167)-Nml-Asp-Arg-Ile-NH2; reading uncertain
B12: JAL-1232 (peptide)
peptide: Octanoyl-AFR[Nva][Hyp][NMeL]DRI-NH2
modifications: not fully specified (some residues); printed as Occ-ala-Phe-arg-Nva-Hyp-Nml-Asp-Arg-Ile-NH2
B13: JAL-1238 (peptide)
peptide: {Dodecenoyl(5Z)}-FRL[Hyp][NMeL]DRI-NH2
modifications: not fully specified (some residues); printed as 6015-Phe-arg-Leu-Hyp-Nml-Asp-Arg-Ile-NH2
B14: JAL-1239 (peptide)
peptide: 6054-FRL[Hyp][NMeL]DRI-NH2
modifications: not fully specified (some residues); printed as 6054-Phe-arg-Leu-Hyp-Nml-Asp-Arg-Ile-NH2; reading uncertain
B15: JAL-1225 (peptide)
peptide: Octanoyl-AFRL[Hyp][tBuAla]DRI-NH2
modifications: not fully specified (some residues); printed as Occ-ala-Phe-arg-Leu-Hyp-Npg-Asp-Arg-Ile-NH2
B16: JAL-1231 (peptide)
peptide: Octanoyl-AFRL[Sar][NMeL]DRI-NH2
modifications: not fully specified (some residues); printed as Occ-ala-Phe-arg-Leu-Sar-Nml-Asp-Arg-Ile-NH2
B17: JAL-1224 (peptide)
peptide: Octanoyl-AFRL[Hyp]IDRI-NH2
modifications: not fully specified (some residues); printed as Occ-ala-Phe-arg-Leu-Hyp-Ile-Asp-Arg-Ile-NH2
B18: JAL-1227 (peptide)
peptide: Octanoyl-AFRL[Hyp][Ebe]DRI-NH2
modifications: not fully specified (some residues); printed as Occ-ala-Phe-arg-Leu-Hyp-Ebe-Asp-Arg-Ile-NH2
B19: JAL-0542 (peptide)
peptide: Hexanoyl-[GABA]FGLKLDRIS[Ebe]-NH2
SMILES: CCCCCC(=O)NCCCC(=O)N[C@@H](Cc1ccccc1)C(=O)NCC(=O)N[C@@H](CC(C)C)C(=O)N[C@@H](CCCCN)C(=O)N[C@@H](CC(C)C)C(=O)N[C@@H](CC(=O)O)C(=O)N[C@@H](CCCNC(=N)N)C(=O)N[C@H](C(=O)N[C@@H](CO)C(=O)N[C@@H](CSC)C(N)=O)[C@@H](C)CC
B20: JAL-1226 (peptide)
peptide: Octanoyl-AFRL[Hyp][Tle]DRI-NH2
modifications: not fully specified (some residues); printed as Occ-ala-Phe-arg-Leu-Hyp-Tbg-Asp-Arg-Ile-NH2

Molecular target: T1, natriuretic peptide receptor-B (human)
T1 chain: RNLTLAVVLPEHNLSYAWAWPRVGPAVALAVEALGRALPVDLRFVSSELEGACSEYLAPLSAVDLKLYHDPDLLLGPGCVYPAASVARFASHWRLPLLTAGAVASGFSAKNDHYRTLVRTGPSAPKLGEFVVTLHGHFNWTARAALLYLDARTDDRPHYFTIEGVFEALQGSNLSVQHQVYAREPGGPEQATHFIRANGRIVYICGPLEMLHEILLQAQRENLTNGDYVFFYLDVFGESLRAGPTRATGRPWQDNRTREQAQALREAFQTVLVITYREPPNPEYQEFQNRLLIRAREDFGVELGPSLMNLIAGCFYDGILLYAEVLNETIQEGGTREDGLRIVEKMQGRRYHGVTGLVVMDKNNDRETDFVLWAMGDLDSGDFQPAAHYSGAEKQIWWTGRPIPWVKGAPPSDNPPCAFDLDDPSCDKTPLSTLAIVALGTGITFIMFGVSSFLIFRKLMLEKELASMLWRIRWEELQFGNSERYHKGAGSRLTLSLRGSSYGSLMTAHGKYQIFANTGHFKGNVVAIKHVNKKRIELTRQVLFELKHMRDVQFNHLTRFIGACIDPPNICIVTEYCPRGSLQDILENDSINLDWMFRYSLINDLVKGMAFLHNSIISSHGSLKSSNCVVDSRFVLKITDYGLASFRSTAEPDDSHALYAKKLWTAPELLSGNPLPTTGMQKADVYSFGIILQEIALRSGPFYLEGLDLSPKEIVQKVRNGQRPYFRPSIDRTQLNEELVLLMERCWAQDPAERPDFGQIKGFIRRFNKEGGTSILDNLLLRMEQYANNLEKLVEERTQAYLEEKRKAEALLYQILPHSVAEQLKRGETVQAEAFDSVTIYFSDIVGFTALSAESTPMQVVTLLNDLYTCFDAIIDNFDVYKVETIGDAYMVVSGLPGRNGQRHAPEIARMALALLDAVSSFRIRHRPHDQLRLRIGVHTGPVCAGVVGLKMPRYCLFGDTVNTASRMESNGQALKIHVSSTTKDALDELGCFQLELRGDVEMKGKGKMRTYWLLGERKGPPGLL
Assay: cell-based or functional assay

Row | EC50 group, cGMP in GTM-3 cells | Binder
1 | ≤ 5 µM | B1
2 | ≤ 1 µM | Octanoyl-[dA][Phe(4-Br)][dR]L[Hyp]LDRI-NH2 [JAL-1116]
3 | ≤ 5 µM | Octanoyl-[dA]FGL[Pro(trans-4-F)]LDRI-NH2 [JAL-1115]
4 | ≤ 5 µM | Octanoyl-[dA][NMeF][dR]LP[NMeL]DRI-NH2 [JAL-1076]
5 | ≤ 1 µM | B2
6 | ≤ 5 µM | Octanoyl-[dA]F[dR]L[Hyp]LDRI-NH2 [JAL-1156_02]
7 | ≤ 5 µM | Octanoyl-[dA]F[dR]L[Pro(trans-4-F)]LDRI-NH2 [JAL-1114]
8 | ≤ 1 µM | B3
9 | ≤ 15 µM | B4
10 | ≤ 5 µM | Octanoyl-[dA]F[dDab]LPLDRI-NH2 [JAL-1120]
11 | ≤ 5 µM | Octanoyl-[dA]F[dR]LP[NMeL]DRI-NH2 [JAL-1075]
12 | ≤ 5 µM | Octanoyl-[dA]F[dAgp]LPLDRI-NH2 [JAL-1122]
13 | ≤ 15 µM | B5
14 | ≤ 5 µM | B6
15 | ≤ 1 µM | B7
16 | ≤ 5 µM | B8
17 | ≤ 15 µM | XXAFGLKLDRIS (Hex-Ebe-ala-Phe-Gly-Leu-Lys-Leu-Asp-Arg-Ile-Ser-NH2) [JAL-0540]

Row | EC50 group, cGMP in GTM-3 cells | Binder
18 | ≤ 5 µM | B9
19 | ≤ 1 µM | Octanoyl-[dA][NMeF][dR]L[Hyp][NMeL]DRI-NH2 [JAL-1085]
20 | ≤ 5 µM | Octanoyl-[dA]F[dAgb]LPLDRI-NH2 [JAL-1121]
21 | ≤ 5 µM | B10
22 | ≤ 15 µM | Hexanoyl-[Ebe][dA]FGLKLDRI-NH2 [JAL-0541]
23 | ≤ 15 µM | B11
24 | ≤ 5 µM | B12
25 | ≤ 1 µM | Octanoyl-[dA]F[dR]L[Hyp][NMeL]DRI-NH2 [JAL-1086]
26 | ≤ 5 µM | B13
27 | ≤ 5 µM | B14
28 | ≤ 1 µM | B15
29 | ≤ 5 µM | B16
30 | ≤ 5 µM | B17
31 | ≤ 5 µM | B18
32 | ≤ 15 µM | B19
33 | ≤ 15 µM | B20
